For the test, the target named is α6β1. α6β4 (human) (UniProt P23229). Nature of the test: flow cytometry on HMVEC-d; dis-Fc binding with 5-8 fold excess α6β1/α6β4 mAb (GoH3, 439-9B; competitor) vs control mAb. A general note: A flow cytometer gives signals particle by particle.

Sequence of ADAM-22dis-Fc (Fc fusion) (chain): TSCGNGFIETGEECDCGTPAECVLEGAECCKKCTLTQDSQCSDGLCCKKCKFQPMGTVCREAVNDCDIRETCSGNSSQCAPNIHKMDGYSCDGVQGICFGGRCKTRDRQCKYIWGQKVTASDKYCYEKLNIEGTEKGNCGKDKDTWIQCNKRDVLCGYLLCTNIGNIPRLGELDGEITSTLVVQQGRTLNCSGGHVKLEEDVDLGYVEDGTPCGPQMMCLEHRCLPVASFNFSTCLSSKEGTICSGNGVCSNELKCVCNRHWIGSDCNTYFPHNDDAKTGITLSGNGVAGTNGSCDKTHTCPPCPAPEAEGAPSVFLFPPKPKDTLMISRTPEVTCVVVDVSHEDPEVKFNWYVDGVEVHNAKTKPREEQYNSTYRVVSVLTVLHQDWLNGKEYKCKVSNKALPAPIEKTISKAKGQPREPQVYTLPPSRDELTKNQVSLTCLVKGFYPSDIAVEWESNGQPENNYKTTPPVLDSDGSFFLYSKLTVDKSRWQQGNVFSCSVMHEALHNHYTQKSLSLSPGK
Sequence of ADAM-23dis-Fc (Fc fusion) (chain): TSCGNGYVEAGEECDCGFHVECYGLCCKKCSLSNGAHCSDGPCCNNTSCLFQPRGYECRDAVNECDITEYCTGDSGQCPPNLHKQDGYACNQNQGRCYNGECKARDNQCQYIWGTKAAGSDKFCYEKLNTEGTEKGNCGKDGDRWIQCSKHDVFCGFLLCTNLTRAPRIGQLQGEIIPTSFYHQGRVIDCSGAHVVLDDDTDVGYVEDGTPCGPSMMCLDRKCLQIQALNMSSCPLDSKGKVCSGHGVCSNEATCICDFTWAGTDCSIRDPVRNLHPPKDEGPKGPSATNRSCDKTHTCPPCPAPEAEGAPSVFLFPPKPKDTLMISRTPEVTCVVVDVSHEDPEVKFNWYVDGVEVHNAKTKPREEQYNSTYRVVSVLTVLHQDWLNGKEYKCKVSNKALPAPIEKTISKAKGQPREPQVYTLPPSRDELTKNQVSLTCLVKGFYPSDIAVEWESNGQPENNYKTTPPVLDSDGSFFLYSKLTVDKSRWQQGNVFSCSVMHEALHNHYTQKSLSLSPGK

The substance ADAM-22dis-Fc (Fc fusion) came in with a percent inhibition of binding of 32%.

In the case of ADAM-23dis-Fc (Fc fusion), the percent inhibition of binding came out at 31%.
